# Publication PMC10267678, “Proteomic Profiling of Extracellular Matrix Components from Patient Metastases Identifies Consistently Elevated Proteins for Developing Nanobodies That Target Primary Tumors and Metastases” (Cancer Research, 2023)
# Key:
# [1] = target: T1, mouse TNC on tissue sections of lung metastases derived from murine TNBC cell line 4T1 (Mus musculus (4T1 metastases in BALB/c), UniProt Q80YX1); test: immunostaining of cells or tissue; IHC with the nanobodies on tissue sections of lung metastases (LM2 in NSG mice; 4T1 in BALB/c mice); settings: one partner purified
# T1 construct: tenascin-C, mouse, endogenous in 4T1 lung metastases; source: endogenous, 4T1 lung metastases in BALB/c mice, tissue sections
# [2] = target: T2, human TNC in the ECM of tumors and lung metastases derived from human TNBC cell line LM2 (Homo sapiens (LM2 cells), UniProt P24821); test: two-photon microscopy of resected organs after intravenous injection of labelled nanobody; Alexa-647 labelled nanobodies injected via the tail vein into NSG mice with LM2-TGL-ZsGreen tumors; organs resected 2 hours after injection and imaged; settings: one partner purified
# T2 construct: tenascin-C, human, made by LM2 human TNBC cells in xenografts; also called hTNC; TNC fibrils; source: endogenous, ECM of LM2 (LM2-TGL-ZsGreen) tumors and lung metastases in NSG mice
# [3] = target: T3, full-length human TNC protein (Homo sapiens, UniProt P24821); test: far-Western, overlay or dot blot; immunoblot of human TNC protein probed with the nanobodies; settings: both partners purified
# T3 construct: tenascin-C, human, full-length recombinant protein (Sigma); also called human tenascin-C; hTNC; source: bought: Sigma-Aldrich (purified, recombinant)
# T3 sequence (P24821 23-2201): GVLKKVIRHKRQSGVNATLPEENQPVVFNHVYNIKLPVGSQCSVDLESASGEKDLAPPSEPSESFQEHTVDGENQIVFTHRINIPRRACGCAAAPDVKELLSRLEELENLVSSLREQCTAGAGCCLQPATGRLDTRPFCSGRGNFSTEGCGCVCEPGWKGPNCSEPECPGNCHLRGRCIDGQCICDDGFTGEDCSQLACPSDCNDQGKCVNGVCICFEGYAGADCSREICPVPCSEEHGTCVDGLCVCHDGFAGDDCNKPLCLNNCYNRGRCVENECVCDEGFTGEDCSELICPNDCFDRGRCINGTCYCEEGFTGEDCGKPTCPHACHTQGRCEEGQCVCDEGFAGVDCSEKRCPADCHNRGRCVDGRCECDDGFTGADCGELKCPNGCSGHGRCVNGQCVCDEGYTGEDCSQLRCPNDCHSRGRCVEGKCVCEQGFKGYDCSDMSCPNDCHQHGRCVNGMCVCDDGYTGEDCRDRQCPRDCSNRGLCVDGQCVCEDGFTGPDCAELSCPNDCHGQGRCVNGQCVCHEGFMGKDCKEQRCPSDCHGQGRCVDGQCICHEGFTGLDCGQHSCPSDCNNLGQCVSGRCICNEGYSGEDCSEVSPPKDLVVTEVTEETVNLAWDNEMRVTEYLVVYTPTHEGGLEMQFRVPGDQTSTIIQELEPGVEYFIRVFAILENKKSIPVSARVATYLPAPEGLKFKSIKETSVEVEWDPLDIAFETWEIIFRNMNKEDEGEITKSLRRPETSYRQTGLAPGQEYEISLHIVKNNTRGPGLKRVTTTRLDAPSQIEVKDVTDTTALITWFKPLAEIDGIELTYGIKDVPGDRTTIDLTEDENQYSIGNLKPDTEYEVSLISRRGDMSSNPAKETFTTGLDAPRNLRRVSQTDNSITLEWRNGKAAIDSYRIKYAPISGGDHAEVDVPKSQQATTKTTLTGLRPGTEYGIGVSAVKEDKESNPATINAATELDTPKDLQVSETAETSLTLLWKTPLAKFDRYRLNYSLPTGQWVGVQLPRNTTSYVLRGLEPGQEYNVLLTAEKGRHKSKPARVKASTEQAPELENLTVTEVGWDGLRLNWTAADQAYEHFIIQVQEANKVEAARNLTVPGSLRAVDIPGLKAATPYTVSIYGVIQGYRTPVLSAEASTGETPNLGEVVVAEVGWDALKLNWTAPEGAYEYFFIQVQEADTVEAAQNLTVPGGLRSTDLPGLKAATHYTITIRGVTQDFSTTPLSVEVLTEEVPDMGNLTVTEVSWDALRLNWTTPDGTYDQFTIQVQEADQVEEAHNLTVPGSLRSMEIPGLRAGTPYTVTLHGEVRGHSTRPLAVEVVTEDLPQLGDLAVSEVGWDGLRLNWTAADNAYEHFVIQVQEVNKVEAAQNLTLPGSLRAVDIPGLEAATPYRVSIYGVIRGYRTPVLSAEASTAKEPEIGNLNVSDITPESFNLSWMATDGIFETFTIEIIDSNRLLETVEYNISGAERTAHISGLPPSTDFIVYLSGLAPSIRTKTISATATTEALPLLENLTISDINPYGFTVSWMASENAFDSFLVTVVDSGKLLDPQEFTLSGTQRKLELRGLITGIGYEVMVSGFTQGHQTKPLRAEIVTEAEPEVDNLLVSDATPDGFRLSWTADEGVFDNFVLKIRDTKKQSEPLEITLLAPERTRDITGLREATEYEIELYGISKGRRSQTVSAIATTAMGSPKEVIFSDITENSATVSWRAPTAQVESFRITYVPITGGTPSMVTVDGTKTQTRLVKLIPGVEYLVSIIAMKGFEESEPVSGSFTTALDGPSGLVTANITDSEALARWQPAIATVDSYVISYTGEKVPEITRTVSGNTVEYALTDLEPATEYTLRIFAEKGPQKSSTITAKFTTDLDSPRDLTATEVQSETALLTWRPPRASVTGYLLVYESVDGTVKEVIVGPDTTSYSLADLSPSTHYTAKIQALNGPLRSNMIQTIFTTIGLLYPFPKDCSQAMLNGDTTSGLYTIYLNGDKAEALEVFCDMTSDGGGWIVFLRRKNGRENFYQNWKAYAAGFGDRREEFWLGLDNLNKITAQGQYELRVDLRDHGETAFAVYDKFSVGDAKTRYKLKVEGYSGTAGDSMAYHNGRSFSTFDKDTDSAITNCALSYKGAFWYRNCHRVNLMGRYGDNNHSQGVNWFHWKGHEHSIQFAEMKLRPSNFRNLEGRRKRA
# T1 sequence (Q80YX1 23-2110): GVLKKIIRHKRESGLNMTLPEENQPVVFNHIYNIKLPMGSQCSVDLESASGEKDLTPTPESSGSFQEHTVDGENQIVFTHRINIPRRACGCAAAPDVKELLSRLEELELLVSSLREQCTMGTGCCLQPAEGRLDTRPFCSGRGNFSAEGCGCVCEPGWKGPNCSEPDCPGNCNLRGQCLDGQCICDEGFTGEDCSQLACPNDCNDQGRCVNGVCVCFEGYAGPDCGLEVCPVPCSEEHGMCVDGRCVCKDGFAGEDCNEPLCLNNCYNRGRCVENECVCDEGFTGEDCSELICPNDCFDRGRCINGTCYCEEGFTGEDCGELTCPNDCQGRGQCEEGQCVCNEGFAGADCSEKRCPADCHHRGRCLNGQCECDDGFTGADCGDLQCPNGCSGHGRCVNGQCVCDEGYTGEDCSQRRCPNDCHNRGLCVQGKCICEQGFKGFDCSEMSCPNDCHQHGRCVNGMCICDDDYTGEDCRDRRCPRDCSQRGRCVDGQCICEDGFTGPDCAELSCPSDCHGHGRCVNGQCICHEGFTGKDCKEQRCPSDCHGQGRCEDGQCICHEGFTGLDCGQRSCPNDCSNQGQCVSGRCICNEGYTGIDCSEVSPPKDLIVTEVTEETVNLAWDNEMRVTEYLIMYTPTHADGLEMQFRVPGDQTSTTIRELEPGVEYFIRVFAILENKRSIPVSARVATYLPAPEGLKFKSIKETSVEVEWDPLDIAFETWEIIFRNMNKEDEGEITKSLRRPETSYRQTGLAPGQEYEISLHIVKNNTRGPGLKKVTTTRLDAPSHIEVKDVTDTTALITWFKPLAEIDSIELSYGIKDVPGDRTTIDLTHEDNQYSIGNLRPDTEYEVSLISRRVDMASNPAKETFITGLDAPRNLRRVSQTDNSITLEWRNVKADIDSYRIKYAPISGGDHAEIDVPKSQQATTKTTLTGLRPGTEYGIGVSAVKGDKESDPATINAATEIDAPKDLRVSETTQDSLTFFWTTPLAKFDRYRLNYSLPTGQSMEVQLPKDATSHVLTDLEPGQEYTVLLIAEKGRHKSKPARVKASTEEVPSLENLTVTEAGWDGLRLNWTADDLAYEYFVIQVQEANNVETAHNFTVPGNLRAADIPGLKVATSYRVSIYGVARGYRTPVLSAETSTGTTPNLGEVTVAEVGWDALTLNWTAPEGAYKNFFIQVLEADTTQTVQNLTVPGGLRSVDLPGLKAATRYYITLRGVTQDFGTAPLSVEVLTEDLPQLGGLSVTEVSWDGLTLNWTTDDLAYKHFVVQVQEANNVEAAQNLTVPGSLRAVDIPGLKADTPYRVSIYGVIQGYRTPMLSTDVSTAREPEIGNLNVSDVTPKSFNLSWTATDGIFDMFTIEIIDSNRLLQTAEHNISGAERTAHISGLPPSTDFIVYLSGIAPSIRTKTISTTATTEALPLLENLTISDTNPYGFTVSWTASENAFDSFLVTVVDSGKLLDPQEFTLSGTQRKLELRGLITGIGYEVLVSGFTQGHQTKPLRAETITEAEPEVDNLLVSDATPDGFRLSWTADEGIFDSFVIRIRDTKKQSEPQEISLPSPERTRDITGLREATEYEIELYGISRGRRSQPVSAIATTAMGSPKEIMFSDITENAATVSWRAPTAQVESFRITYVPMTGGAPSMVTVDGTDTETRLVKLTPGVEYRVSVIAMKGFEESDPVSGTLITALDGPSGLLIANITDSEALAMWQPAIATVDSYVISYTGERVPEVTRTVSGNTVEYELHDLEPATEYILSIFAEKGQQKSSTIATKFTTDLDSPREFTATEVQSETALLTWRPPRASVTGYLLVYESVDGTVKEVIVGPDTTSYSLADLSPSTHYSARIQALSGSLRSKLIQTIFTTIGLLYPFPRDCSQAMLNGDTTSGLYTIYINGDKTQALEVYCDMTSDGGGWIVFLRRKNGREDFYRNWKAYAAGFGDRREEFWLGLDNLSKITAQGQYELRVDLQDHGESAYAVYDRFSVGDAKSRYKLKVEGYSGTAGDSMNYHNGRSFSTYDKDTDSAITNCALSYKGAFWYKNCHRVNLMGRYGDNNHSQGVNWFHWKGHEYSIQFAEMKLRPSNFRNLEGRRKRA
# T2 sequence (P24821 23-2201): as the sequence (P24821 23-2201) above
Binder,binding result [1],binding result [2],binding result [3]
"NJT4 (VHH, The label differs between experiments (biotin, Alexa-647); also called anti-TNC nanobody NJT4; 64Cu-NJT4; source: selected from alpaca phage-display library B; expressed and purified by methods previously described; not shown: sortase tag, C-terminal, kept) VHH: QVQLVESGGGLVQPGGSLRLSCAASGFTFSSYTMRWYRQAPGKERELVAFIGVAGGSTKYADSVKGRFTISRDNTKNTVYLQMNTLKPEDTAVYYCYAPLTPYWGQGTQVTVSS",no binding,binds,binds
"NJT6 (VHH, The label differs between experiments (biotin, Alexa-647); also called anti-TNC nanobody NJT6; 64Cu-NJT6; source: selected from alpaca phage-display library B; expressed and purified by methods previously described; not shown: sortase tag, C-terminal, kept) VHH: QVQLVETGGDLVQPGGSLRLSCAASGLTLDYYAIGWVRQAPGKEREGVSCITPQDGNTYYDDSVMGRFTILRDNAKNMVYLQMNNLKPEDTAVYFCAAAGALTLDPSEYEYWGQGTQVTVSS",no binding,binds,binds
"NJT3 (VHH, The label differs between experiments (biotin, Alexa-647); also called anti-TNC nanobody NJT3; 64Cu-NJT3; source: selected from alpaca phage-display library B; expressed and purified by methods previously described; not shown: sortase tag, C-terminal, kept) VHH: QVQLVETGGGLAQAGGSLRLSCAASGRTLSGYAMGWFRQAPGKEREFVAAISWSGRNTYYDYTVQGRFTISKDNAKNTVNLQMNSLKPEDTAVYYCAVSRSLDEFGDGYEMDYWGDGTQVTVSS",no binding,binds,binds
